Results published in a protein production outcome set (Wang et al. 2014).

Assay: label from the status in PepcDB records
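Note: failed if final PepcDB status was selected cloned or expressed and not failed if soluble or beyond.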

Sequence | protein production
MLDAAIKALTQILSPPMRSILWRSVGFALALIAVAAIGLQRLLSWAATSSELWAEAALGGFQTPLNILSWVLSIAAGLGIVVGAVFLMPAVTSLVAGIFVDEAAEHVERESYPHEAPGVALPIGLATWETVKTALLTILVYLVALPFLFVAGAGAIVFFVATAWLLGREYFELAAMRFRTAPEAKAMRRDNATTVFIGGLIIAAFVSIPIVNLATPLFGMAFMVHLHKRLSGSRPEVLAPDQRSMLR | failed
MLDHVIRGATVVDGTGAPAYTADVGIRDGRIAAVGTVTEPARAGEDAAGLVLAPGFVDPHTHYDAQLFWDPYATPSLNHGVTTVAGGNCGFTLAPLNPDRPQDADYTRRMMSKVEGMSLVALEEGAPWSWHTFGDYLDALEGRIAVNAGFMVGHCALRRYVMGPDAVGGRPTREQLERMLALFHEAMDAGAWGLSTTQSSTHSDGDGQPVASRHARPAELLALARAVGEHEGTQIEAIVAGCLDQFSDAEIDLFVEMSAAAGRPLNWNVLTIDAAVPERVPRQLTASERARKAGGRVVALTMPILTPMNMSLGTFCALNLIPGWGEVLGLPVPERIARLRDPDVRAELLRRADSKEAGVFRRLANFGRYVIGDTYSTANEGLTGRVVNDIAAERGQDPFHCLVEICAADELRTVLWPMPTDNDPDSWALRAETWRHKDVLLGGSDAGAHLDRMCGAPYTTRFLGDCLRGRKLVPLEQAVKMLTDDPARLFGLRDRGRIREGFHADLVLFDPARIDAGKATLVHDLPGDSPRLDSKAIGVTAVWVNGVEAIRDDVVTGAVPGKVLRSGRDTRTVSTR | failed
MLDKNVLNEIGSKVNEILASSPARDVEKNMRAMLTGAFARLDLVTREEFDVQQEVIKRTRIKLAELEEKVRKLEQQLQQPAEVVSSNETGDA | not failed
MLDLAAPFFLLLLPLPFLVRRFLPPHAAQEGALYLPEAFAAAARPTSAFARSERWEGALRAILWLALVLALAGPERLKAVPDLSASGREIVLTLDMSGSMLIEDFDIDGVQSTRLEAVKRVARSFVEERQGDRIGLVLFANRAYVAAPLTFDLAAVGRAIEEASIGITGRSTAIADGLGLALKSVTESSAASRVIVLLSDGQDNAHQIDARQVAGLAARHGVRIHTIALGPDDLETRPAARDAVDTATLRAIAEASGGRSYRVRGMEDLRAMAADLDRLEPNPAERPPVLVPEPLWPWPALLALGAALVLGLRRAGLAPWPRRAGRAA | failed
MLDLNPNQSYIIRINKKGGINMHWLADLLAAIGVVLNGIPQGIMAMSLGFAVFPTAFSFGLVGLINGVASSVAPVSFQAESLALVGHLGHDLRERSSIIFLGASLMFVIGLTGTLPLIVHSLGNQLMAAMMAGVGLMLAKIALQMAHEQPQFGWLSIGLAGVTYLISKDLVWTIAVSVIGTSCYAATTHYRVALPEHVTTRKLQFVRPQFSFKILRGALSLACLNIGANLSYGLITGQMTGQHPNPVNLNLLTSSQALADLGTSLLGGAPVETIISATASAPEPVIAGILMMLIMMLILLLGWLPKLGKVVPSTAIAGFLFILGTIVIFPENATTALHGSLSTVAGVTLVVTALVDPFAGLMTGALLKFGLPLIGLGL | failed
MLDLVAAFIALTTLLTYVNYRFIRLPPTIGVMATALVFSLIVQGLSELGYPILEVEMQEIIRRIDFSEVLMTWFLPALLFAGALHVDLSDLRSYKWPIGLLATAGVLIATFVIGGLAYYTFPLFGWQVDFIYCLLFGALISPTDPIAVLGILKSAGAPKPLATTIVGESLFNDGTAVVVFAIILGILQLGEAPTVSATAILFVQEAIGGVVFGAVLGYGVFVMMRGIDQYQVEVMLTLALVIGGAALAARLHVSAPIAMVVAGLIIGNHGRHYAMSDETRRYVDKFWELIDEILNALLFALIGLELLLLPFSWLHVAAAFALGGAVLVSRLLTVGPAILVLRRFRGANRQVPAGTIRILVWGGLRGGVSVALALSLPLGPERDLILSLTYIVVLVSILLQGLSIGPLVRRIYAGQPLEKSEGAH | failed
MLDLVSSKTTPVFSLVAFAVIHSLTASLPFKRMVMKAAGPRAEKLYLPAYSLVAVLTVLPLAYQLYKNPGRILYKIPSPWRWLMVGGQVIAGILAPMAFWNAPHRFKIRSQLSGPQASEEGSLKIKGIYRWVRDPFLLSGLVVMLLTPFMTVNLLIVYLLTTVYLFLGSLHWETRLVAQFGDEYREYQKKVHRIIPELKGSVKNPGDKASE | failed
MLDPARGYDLIGDVHGCAHTLEHLLELLGYRLQAGVWRHPERIAIFLGDIIDRGPRIRESLHIVRDMVQAGQAYCIMGNHEFNALGWMTPALPESGHLFVREHTPRHARLIGETLAQFEAYPDEWNEFVNWFYELPLYIDAGRFRVVHACWDATLIDPLRGLHGTGCIDRHFVQASAVPGSFASNVFNRLLRGTDMRLPHGLTLTGGDGLTREFFRTKFWEDNPQTYGDVVFQPDALPEGVAKTPLSTSEKNALLRYGSNEPLLFVGHYWRSGIPAPIRPNLACLDYSAVLYGKLVAYRLDQETHVDPDKFVWVDVQRPEVSP | failed
MLDPARSFDIIGDVHGCALTLERLLDALGYKRVAGVWRHPRRQALFLGDIVDRGPRIREALHIVHDMVEAGQAFCIMGNHEYNALGWVTPALPGSGKAYVREHTPRHARLIDETLTQFAQHPGDWHDFVNWFYQLPLFIDAGRFRLVHACWDPRLIEPLRQQYPDGRIDEHFIQASAVSGSFADTVCNRLLRGTDMRLPDGLTLTGGDGLTRAFFRTKFWEEDPKTYGDIVFQPDALPEEVASTPLSHSQKNALLRYDEDQPMLFVGHYWRSGRPAPIRANLACLDYSAVLYGKLVAYRLDDETRIDPHKFVWVDVDRPQANQLEHHHHHH | not failed
MLDPYRRYRHARLIHAVRVALGLIATILLTTGLNLPHGEWASVTMLVVIGGLQHHGNIGKKAAERAIGTLVGAGVGLVLVVQQAYFGHPWLTYLGMSVVCGYFSYHAIGKGGYTALLAAITVFIVAGHGDNQVSDGLWRAVDILIGIALALAFSFAIPLYAVYSWRYNLASALRDCAQLYGRIIKGQSVTDDEHLKLLGRVNSAMLQLRSLMPSVSKEVRISMTELDAIQRNLRMCISTLEILGNTRPDASDPQAMAQMQLALKAEHRQIRVQLIGMARALQSGVTQRLEKSVEGHPENALEAPVYSALDGYRLLTRQLAATLGEMHQRLAKSARHWKI | failed
MLDRLRFPHPWLSLTLFVMWQFLSDGISGGSIVLGLILAWIIPLMTQGFWPDPPTLLKAWKTPAYLLRVLWDIVVASVDVARLILSPRAPRPMFICYTLELTDPLAISILASTISLTPGTVSADVSDDNTLLLIHALDAEDEQEVIDTIRNRYEKPLLEMFQ | failed
MLDSAQLIFDLQKVNTTSKRISGCLDTTAITKEITEALIHDFHCVFARIWLTEPDGASLKLVASSGLHTSTNGSFARVPMGAYKVGKIAQSCIPFLSNHLANETWVKDRDWAIANNIRGFAGYPLVGHDRVIGVLAVFSEAPFVAEFLEVLQVLCMAVAIAIDAVRQLQSETNTINTTQFLDDQIP | failed
MLEATNTPSKTEEPAAPVNPALAAEAKIARIAVTVFPLLVVVAGVLGFLIPDLFKPMGVAVPYLLGVIMFCMGLTLTPPDFASVARRPWAVALGIVAHYVIMPGAGWLIAVLLQLPPELAVGLILVGCAPSGTASNVMAFLAKGDVALSVAVASVSTLIAPIVTPTLTLFLAGSFLHIDAGAMVMDIVKTVLLPVIAGLLARLFLSKLVAKVLPALPWASAVVISLIVAIVVAGSASKIVAAGAIVFLAVVLHNGFGLGLGYLAGKLGRLDDKARRALAFEVGMQNSGLAATLATAHFSPLAALPSAVFSLWHNISGAIVAAWLARRPLKD | failed
MLEEYRKHVAERAAEGIAPKPLDANQMAALVELLKNPPAGEEEFLLDLLTNRVPPGVDEAAYVKAGFLAAIAKGEAKSPLLTPEKAIELLGTMQGGYNIHPLIDALDDAKLAPIAAKALSHTLLMFDNFYDVEEKAKAGNEYAKQVMQSWADAEWFLNRPALAEKLTVTVFKVTGETNTDDLSPAPDAWSRPDIPLHALAMLKNAREGIEPDQPGVVGPIKQIEALQQKGFPLAYVGDVVGTGSSRKSATNSVLWFMGDDIPHVPNKRGGGLCLGGKIAPIFFNTMEDAGALPIEVDVSNLNMGDVIDVYPYKGEVRNHETGELLATFELKTDVLIDEVRAGGRIPLIIGRGLTTKAREALGLPHSDVFRQAKDVAESDRGFSLAQKMVGRACGVKGIRPGAYCEPKMTSVGSQDTTGPMTRDELKDLACLGFSADLVMQSFCHTAAYPKPVDVNTHHTLPDFIMNRGGVSLRPGDGVIHSWLNRMLLPDTVGTGGDSHTRFPIGISFPAGSGLVAFAAATGVMPLDMPESVLVRFKGKMQPGITLRDLVHAIPLYAIKQGLLTVEKKGKKNIFSGRILEIEGLPDLKVEQAFELTDASAERSAAGCTIKLNKEPIIEYLNSNIVLLKWMIAEGYGDRRTLERRIQGMEKWLANPELLEADADAEYAAVIDIDLADIKEPILCAPNDPDDARPLSAVQGEKIDEVFIGSCMTNIGHFRAAGKLLDAHKGQLPTRLWVAPPTRMDAAQLTEEGYYSVFGKSGARIEIPGCSLCMGNQARVADGATVVSTSTRNFPNRLGTGANVFLASAELAAVAALIGKLPTPEEYQTYVAQVDKTAVDTYRYLNFNQLSQYTEKADGVIFQTAV | not failed
MLEIIQKTLTDNAIIGAIFSSIAIIFLGFYIRKRNILTGAASKILTKVVLTVAIPALAFTSFMKDINQKELHEGINILIWGFVIYILLIVLTKFIFARVKGDKQDVFRVLTIFGSTTFFGVPIVKAVYGSVGAMYSSIFNIAYRVFLYSYGYIKMSGVKMDKENLKKNLKEMLLNPVIIATFLGLFIWLFQGMLPQVQIGDKSYAFLRIDQTLPWLYKPLTYLDKLCSPLAWLAIGITLAEVPFKQAVGQKEPWVYSLIKIILVPVINLGLLVVLNKTGILPVSFEGMATTVIMLATPTATVAAAYAISFDKEALLTSNCSLLSTVVAVVAMPFWIVILQIIKNIGLFA | failed
MLEINKIHQMNCFDFLDQVENKSVQLAVIDPPYNLSKADWDSFDSHNEFLPFTYRWIDKVLDKLDKDGSLYIFNTPFNCAFICQYLVSKGMIFQNWITWDKRDGMGSAKRGFSTGQETILFFSKSKNHTFNYDEVRVPYESTDRIKHASEKGILKNGKRWFPNPNGRLCGEVWHFSSQRHKEKVNGKTVKLTHITPKPRDLIERIIRASSNPNDLVLDCFMGSGTTAIVAKKLGRNFIGCDMNAEYVNQANFVLNQLEIN | not failed
MLEKSLAILFALLILATLINRFLVWRLPERKGDEVTLRIRTWWGIVICFSLVISGPRWMTLTFFALISFLALKEYCTLISVHFPRWLYWVIPLNYLLIGFNCFELFLLFIPLAGFLILATWRVFVGDPSGFLHTVSAIFCGWIMTVFTLSHAAWLLMLPTINIQGGALLVLFLLALTESNDIAQYLWGKSCGRRKVVPKVSPGKTLEGLVGGVITTMIASLIIGPLLTPLNTLQVLLAGLLIGISGFCGDVVMSATKRDVGVKDSGKLLPGHGGLLDRIDSLIFTAPVFFYFIRYCCY | failed
MLEQIFILLIALVVLVWSADKFVFGASSLARNLGISPMIIGLTIVAMGSSAPEMMVAATASMQGNPDTAIGNAIGSNITNIALVLGITALLQPLTVSSQTIKREIPLILAVTALGYWLLFDNHFSFIEGIILISGFAIYIITLLVITLKKTRGKPSDDPLIIEAEQDVAAAVSMKLSLIWLGVGIILLPLSASFLVDSSVYIAKAYGISDLVIGLTIIAIGTSLPELAASIMSIIKKEDDLALGNIIGSNIFNILAVLPIAGLIAPGNIDALAASRDAPYMLGITLLLFILCFSRRLGAFRITRAKGALLLLSFIAYQVLLFSQLS | failed
MLERIANIQKKLSKSIVERKINEVRKVAAVDVSYKEEKARAALVITTFPEGEVLKTKVIETTVSFPYIPTFFFLRETKPILIATKGETFDVLIVEGHGKAHPRGYGLASHIGVVLRKPTIGVAKRLLKNTPKDTYKKVGKVYVSVGNLITLEDATKIIRAILDESGYPKPLKLADKLSKGRIYEVKNTPSPNRSRKKRGNRGKDNNNSQGNLEHHHHHH | failed
